In article PMC6021441, “Structural basis of the correct subunit assembly, aggregation, and intracellular degradation of nylon hydrolase” (Scientific Reports, 2018):
Numbering of substitutions follows the chain as printed.

Columns and labels:
[1] = target: T1, NylCp2-K^122 alpha subunit (D122K) (Arthrobacter, UniProt Q79F77 1-266, D122K); experiment: crystal structure; sitting-drop vapor diffusion, ammonium sulfate, 0.1 M HEPES pH 7.5, 0.2 M NaCl, 25% glycerol; space group C222_(1), two molecules (A/B dimer) in the asymmetric unit, tetramer by the crystallographic two-fold axis; conditions: both partners purified
T1 construct: NylCp2 alpha subunit with D122K; also called α subunit of NylCp2-K^122; source: E. coli JM109, purified with the beta subunit as the active enzyme
T1 sequence (looked up): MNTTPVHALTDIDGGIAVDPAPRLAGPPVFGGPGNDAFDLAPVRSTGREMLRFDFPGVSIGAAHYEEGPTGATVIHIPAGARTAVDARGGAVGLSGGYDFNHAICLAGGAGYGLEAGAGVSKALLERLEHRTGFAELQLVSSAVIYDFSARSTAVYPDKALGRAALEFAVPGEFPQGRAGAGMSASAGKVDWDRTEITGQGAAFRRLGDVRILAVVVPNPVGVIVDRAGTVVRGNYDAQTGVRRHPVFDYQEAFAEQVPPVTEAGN

[2] = target: T2, NylCp2-G^122Y^130A^36Q^263 alpha subunit (D122G/H130Y/D36A/E263Q) (Arthrobacter, UniProt Q79F77 1-266, D122G | H130Y | D36A | E263Q); experiment: as above; conditions: both partners purified
T2 construct: NylCp2 alpha subunit with four substitutions; also called α subunit of NylCp2-G^122Y^130A^36Q^263; source: E. coli JM109, purified with the beta subunit as the active enzyme
T2 sequence (looked up): T1 sequence (looked up) with D36A, K122G, H130Y, E263Q

- binding result [1]: binds
- binding result [2]: binds
B1: NylCp2 beta subunit (9 kDa) (domain or fragment, Arthrobacter, UniProt Q79F77 267-355, looked up)
chain: TTISAIVTNVRMSPVELNQFAKQVHSSMHRGIQPFHTDMDGDTLFAVTTDEIDLPTTPGSSRGRLSVNATALGAIASEVMWDAVLEAGK
notes: NylCp2, beta subunit made by autocleavage of the 355-residue precursor between Asn266 and Thr267; the same in the wild type and in the mutants crystallised here (all their substitutions lie in the alpha subunit); also called β subunit; source: E. coli JM109, purified with the alpha subunit as the active enzyme
